Here are results for 23 substances from patent publication US20140242075A1.

Assay [1] has as its target C1q (human) (UniProt P02745). The assay can be described thus: cell-based or functional assay.
Assay [2] concerns the target C1q (human) (UniProt P02745). The assay can be described thus: C1q binding ELISA: antibody coated in a dilution series (0.58-10 µg/mL), 3% pooled human serum as source of C1q, rabbit anti-human C1q and swine anti-rabbit IgG-HRP, ABTS, OD 405 nm.
For assay [3], the target named is C1q (human) (UniProt P02745). The assay can be described thus: FACS, C1q titrated on mAb-opsonized Daudi cells; Exp. 1.
The target of assay [4] is C1q (human) (UniProt P02745). The assay can be described thus: FACS, C1q titrated on mAb-opsonized Raji cells; Exp. 1.
For assay [5], the target named is C1q (human) (UniProt P02745). Briefly: FACS, C1q titrated on mAb-opsonized Daudi cells; Exp. 11.
Assay [6] has as its target C1q (human) (UniProt P02745). Briefly: FACS, C1q titrated on mAb-opsonized Raji cells; Exp. 3.
Assay [7] deals with C1q (human) (UniProt P02745). Briefly: C1q ELISA, coated antibody series + 3% human serum; mean.
In assay [8] the target is C1q (human) (UniProt P02745). Briefly: FACS, C1q titrated on mAb-opsonized Daudi cells; Exp. 10.
Assay [9] concerns the target C1q (human) (UniProt P02745). Briefly: FACS, C1q titrated on Daudi cells opsonized with the mix; Exp. 6.

A value given as a limit tells only on which side of the number the result lay.

C1q (human), sequence (P02745 23-245 limits assumed, chain 1 of 3): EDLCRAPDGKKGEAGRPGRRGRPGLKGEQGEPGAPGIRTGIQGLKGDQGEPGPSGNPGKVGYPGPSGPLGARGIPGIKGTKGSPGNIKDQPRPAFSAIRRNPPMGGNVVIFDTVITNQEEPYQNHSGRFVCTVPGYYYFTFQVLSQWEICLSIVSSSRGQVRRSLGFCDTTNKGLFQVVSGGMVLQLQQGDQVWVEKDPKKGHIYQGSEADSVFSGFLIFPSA
C1q (human), sequence (P02746 28-253 limits assumed, chain 2 of 3, further chain): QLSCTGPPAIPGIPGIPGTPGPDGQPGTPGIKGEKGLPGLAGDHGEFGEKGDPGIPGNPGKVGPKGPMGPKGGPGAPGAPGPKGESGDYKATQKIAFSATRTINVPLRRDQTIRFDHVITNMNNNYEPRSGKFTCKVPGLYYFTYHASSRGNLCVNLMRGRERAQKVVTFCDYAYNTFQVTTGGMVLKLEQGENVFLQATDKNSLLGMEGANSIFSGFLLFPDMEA
C1q (human), sequence (P02747 29-245 limits assumed, chain 3 of 3, further chain): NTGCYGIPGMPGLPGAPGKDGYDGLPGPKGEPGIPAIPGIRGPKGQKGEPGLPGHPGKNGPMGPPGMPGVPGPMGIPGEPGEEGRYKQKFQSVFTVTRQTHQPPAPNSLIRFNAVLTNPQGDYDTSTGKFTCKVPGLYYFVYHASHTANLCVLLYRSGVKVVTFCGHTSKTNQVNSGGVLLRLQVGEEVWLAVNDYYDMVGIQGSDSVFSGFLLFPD
IgG1-7D8-E345R (antibody), sequence (heavy, form in doubt): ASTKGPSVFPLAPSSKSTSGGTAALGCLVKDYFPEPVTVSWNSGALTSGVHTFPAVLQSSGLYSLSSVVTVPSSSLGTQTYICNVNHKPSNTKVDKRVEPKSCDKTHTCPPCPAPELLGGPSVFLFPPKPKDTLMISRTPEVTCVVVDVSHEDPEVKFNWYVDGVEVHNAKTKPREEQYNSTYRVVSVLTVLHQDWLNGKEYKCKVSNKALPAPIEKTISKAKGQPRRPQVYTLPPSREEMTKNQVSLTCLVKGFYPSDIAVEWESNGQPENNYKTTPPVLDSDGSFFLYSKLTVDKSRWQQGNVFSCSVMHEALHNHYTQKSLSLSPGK

On to IgG1-7D8-Q438D (antibody), for which, in the assay with C1q (human) [1], the CH50 for C1q efficacy in a CDC assay on Raji cells was > 30 µg/mL.

Substance IgG1-7D8-E345R (antibody) registered a CH50 for C1q efficacy in a CDC assay on Raji cells with C1q (human) [1] of 0.03 µg/mL. On the same count and under the same terms, as for IgG1-7D8-Q311A (antibody), the figure is 0.63 µg/mL; as for IgG1-7D8-I253D/H433A (antibody), > 30 µg/mL; as for IgG1-7D8-H433R (antibody), 0.16 µg/mL.

Turning to IgG1-7D8-Y436D (antibody), the CH50 for C1q efficacy in a CDC assay on Raji cells with C1q (human) [1] was > 30 µg/mL. On the same count and under the same terms, as for IgG1-7D8-K439E (antibody), the figure is > 30 µg/mL. Substance IgG1-7D8-H435R (antibody) returned an EC50 (read off the curve) in the assay with C1q (human) [2] of 2 µg/mL. The CH50 for C1q efficacy in a CDC assay on Raji cells in the assay with C1q (human) [1] amounted to 0.24 µg/mL. IgG1-7D8-I253D (antibody): the CH50 for C1q efficacy in a CDC assay on Raji cells with C1q (human) [1] was > 30 µg/mL. Take IgG1-7D8-N434A (antibody): in the assay with C1q (human) [1], the CH50 for C1q efficacy in a CDC assay on Raji cells came to 21.2 µg/mL. With IgG1-7D8-S440K (antibody), in the assay with C1q (human) [1], the CH50 for C1q efficacy in a CDC assay on Raji cells was > 30 µg/mL.

In the case of IgG1-7D8-H433A (antibody), the CH50 for C1q efficacy in a CDC assay on Raji cells with C1q (human) [1] is > 30 µg/mL. Still for that read-out and setting: as for IgG1-7D8-E382R (antibody), the figure is 0.77 µg/mL. On the same count and under the same terms, as for IgG1-7D8-G385D (antibody), the figure is 22.5 µg/mL; as for IgG1-7D8-I253A (antibody), 11.2 µg/mL; as for IgG1-7D8-H433D (antibody), > 30 µg/mL. As to IgG1-7D8-WT (antibody), the Kd with C1q (human) [3] came to 7.7 nM; with C1q (human) [4], 4.8 nM; with C1q (human) [5], 13.3 nM; with C1q (human) [6] it was 10.9 nM; with C1q (human) [8] it was 11.8 nM. In the assay with C1q (human) [7], the EC50 was 2.05 µg/mL. In addition, in the assay with C1q (human) [1], the CH50 for C1q efficacy in a CDC assay on Raji cells was 0.49 µg/mL. IgG1-7D8-H435A (antibody) gave a CH50 for C1q efficacy in a CDC assay on Raji cells with C1q (human) [1] of 0.96 µg/mL. For 7D8-K439E + 7D8-S440K mix, the Kd in the assay with C1q (human) [9] was determined as 3.6 nM. In the assay with C1q (human) [1], the CH50 for C1q efficacy in a CDC assay on Raji cells came to 1.33 µg/mL. Substance IgG1-7D8-K439E/S440K (antibody) gave a CH50 for C1q efficacy in a CDC assay on Raji cells in the assay with C1q (human) [1] of 0.09 µg/mL. The same measure, in the same setting: as for IgG1-7D8-I253Y (antibody), the figure is 16.1 µg/mL. Consider IgG1-7D8-K322A (antibody), for which, in the assay with C1q (human) [1], the CH50 for C1q efficacy in a CDC assay on Raji cells was > 30 µg/mL and the EC50 calculated from the CDC assay on Daudi cells (antibody concentration resulting in 50% lysis) is > 30 µg/mL. As for IgG1-7D8-H310K (antibody), the CH50 for C1q efficacy in a CDC assay on Raji cells with C1q (human) [1] was > 30 µg/mL.
